Laboratory results taken from patent publication US20150224182A1 (UNIVERSITY OF VIRGINIA PATENT FOUNDATION, published 2015).
Non-standard residues stand in square brackets, D forms with d. No end group written: not given here. pT = C[C@@H](OP(=O)(O)O)[C@H](N)C(=O)O; pS = N[C@@H](COP(=O)(O)O)C(=O)O

Columns and labels:
[1] = biological target: T1, HLA B*0702 (human); assay: MS of peptides eluted from HLA; L/M column: L
T1 construct: Class I MHC molecule of the cells from which the associated phosphopeptides were detected; also called HLA-B7

[2] = biological target: T2, HLA-A*0201 (human); assay: listed as presented with class I MHC on cancer cells (leukemia or transformed B cells)
T2 construct: also called HLA-A2

Row | Binder | binding result [1] | binding result [2]
1 | RAP[pS]PSSRM [RAPsPSSRM] | binds | 
2 | KPR[pS]PDHVL [KPRsPDHVL] | binds | 
3 | KPA[pS]PKFIVTL [KPAsPKFIVTL] | binds | 
4 | RPR[pS]PSPIS [RPRsPSPIS] | binds | 
5 | RRK[pS]QVAEL [RRKsQVAEL] | binds | 
6 | KPPH[pS]PLVL [KPPHsPLVL] | binds | 
7 | ALG[pS]RESLATI [ALGsRESLATI] |  | binds
8 | AMLGSK[pS]PDPYRL (From Protein SON, UniProt P18583) [AMLGSKsPDPYRL] |  | binds
9 | KPP[pS]PEHQSL [KPPsPEHQSL] | binds | 
10 | RPA[pS]AGAML [RPAsAGAML] | binds | 
11 | KPA[pS]PARRL [KPAsPARRL] | binds | 
12 | VPR[pS]PKHAHSSSL [VPRsPKHAHSSSL] | binds | 
13 | RTE[pS]DSGLKK [RTEsDSGLKK] | binds | 
14 | RPN[pS]PSPTAL [RPNsPSPTAL] | binds | 
15 | RPPPPPD[pT]PP [RPPPPPDtPP] | binds | 
16 | RPD[pS]RLGKTEL [RPDsRLGKTEL] | binds | 
17 | RPH[pS]PEKAF [RPHsPEKAF] | binds | 
18 | SPEKAGRR[pS]SL [SPEKAGRRsSL] | binds | 
19 | EPKRR[pS]ARL [EPKRRsARL] | binds | 
20 | RPW[pS]PAVSA [RPWsPAVSA] | binds | 
21 | RPI[pT]PPRNSA [RPItPPRNSA] | binds | 
22 | RRS[pS]LDAEIDSL [RRSsLDAEIDSL] | binds | 
23 | KPQTRGK[pT]F [KPQTRGKtF] | binds | 
24 | KPP[pT]PGASF [KPPtPGASF] | binds | 

Row | Binder | binding result [1] | binding result [2]
25 | SPS[pS]PSVRRQL [SPSsPSVRRQL] | binds | 
26 | RPR[pS]PAARL [RPRsPAARL] | binds | 
27 | LPA[pS]PRARL [LPAsPRARL] | binds | 
28 | RPR[pS]AVLL [RPRsAVLL] | binds | 
29 | FRR[pS]PTKSSL [FRRsPTKSSL] | binds | 
30 | FSI[pS]PVRL [FSIsPVRL] | binds | 
31 | QPR[pS]PGPDYSL [QPRsPGPDYSL] | binds | 
32 | AVIHQ[pS]LGL (From Protein CNPPD1, UniProt Q9BV87) [AVIHQsLGL] |  | binds
33 | TPAQPQRR[pS]L [TPAQPQRRsL] | binds | 
34 | RSE[pS]KDRKL [RSEsKDRKL] | binds | 
35 | RPV[pT]PVSDL [RPVtPVSDL] | binds | 
36 | KPY[pS]PLASL [KPYsPLASL] | binds | 
37 | SPSTSRSGG[pS]SRL [SPSTSRSGGsSRL] | binds | 
38 | RPR[pS]PRQNSI [RPRsPRQNSI] | binds | 
39 | RPV[pS]PGKDI [RPVsPGKDI] | binds | 
40 | RPY[pS]PPFFSL [RPYsPPFFSL] | binds | 
41 | RSG[pS]LERKV [RSGsLERKV] | binds | 
42 | RPF[pS]PREAL [RPFsPREAL] | binds | 
43 | FRR[pS]PTKSSLDY [FRRsPTKSSLDY] | binds | 
44 | SPA[pS]PKISL [SPAsPKISL] | binds | 
45 | RPKLS[pS]PAL [RPKLSsPAL] | binds | 
46 | RP[pS]SPALYF [RPsSPALYF] | binds | 
47 | SPR[pS]PSTTYL [SPRsPSTTYL] | binds | 
48 | RPR[pS]PTGP [RPRsPTGP] | binds | 

Row | Binder | binding result [1] | binding result [2]
49 | TPI[pS]PGRASGM [TPIsPGRASGM] | binds | 
50 | RPP[pS]PGPVL [RPPsPGPVL] | binds | 
51 | RSL[pS]PLLF [RSLsPLLF] | binds | 
52 | RPRAN[pS]GGVDL [RPRANsGGVDL] | binds | 
53 | YQR[pS]FDEVEGVF [YQRsFDEVEGVF] | binds | 
54 | RPSRS[pS]PGL [RPSRSsPGL] | binds | 
55 | SPR[pS]PGKPM [SPRsPGKPM] | binds | 
56 | RPR[pS]PGSNSKV [RPRsPGSNSKV] | binds | 
57 | ALD[pS]GASLLHL [ALDsGASLLHL] |  | binds
58 | YQR[pS]FDEVEGV [YQRsFDEVEGV] | binds | 
59 | RPQRAT[pS]NVF [RPQRATsNVF] | binds | 
60 | RPR[pS]LEVTI [RPRsLEVTI] | binds | 
61 | RPA[pT]GGPGVA [RPAtGGPGVA] | binds | 
62 | RPQRA[pT]SNVF [RPQRAtSNVF] | binds | 
63 | RPKPSS[pS]PV [RPKPSSsPV] | binds | 
64 | RPR[pS]PTGP[pS]NSF [RPRsPTGPsNSF] | binds | 
65 | RPRPH[pS]APSL [RPRPHsAPSL] | binds | 
66 | KPPYRSH[pS]L [KPPYRSHsL] | binds | 
67 | RPP[pS]SEFLDL [RPPsSEFLDL] | binds | 
68 | SPK[pS]PGLKA [SPKsPGLKA] | binds | 
69 | RPAK[pS]MDSL [RPAKsMDSL] | binds | 
70 | RSL[pS]PGGAA [RSLsPGGAA] | binds | 
71 | SPGLARKR[pS]L [SPGLARKRsL] | binds | 
